# In patent US20250282866A1 (VIGIL NEUROSCIENCE, published 2025):
# Where a chain is given by its changes, count along the chain named.
# T1: human TREM2 (human, UniProt Q9NZC2 19-174, limits assumed)
# T1 construct: also called triggering receptor expressed on myeloid cells 2
# T1 sequence: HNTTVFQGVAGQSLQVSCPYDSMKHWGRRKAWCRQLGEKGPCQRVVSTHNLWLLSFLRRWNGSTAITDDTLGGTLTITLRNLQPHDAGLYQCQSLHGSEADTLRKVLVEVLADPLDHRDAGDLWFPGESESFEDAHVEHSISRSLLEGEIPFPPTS
# B1: V6 (antibody, V domains shown)
# VH: EVQLVQSGAEVKKPGESLKISCKGSGYSFTSMWIAWVRQMPGKGLEWMGIIYPGDSDTRYSPSFQGQVTISADKSISTAYLQWSSLKASDTAMYFCARQRTFYYDSSDYFDYWGQGTLVTVSS
# VL: DIQMTQSPSSVSASVGDRVTITCRASQGISSWLAWYQQKPGKAPKLLIYAASSLQNGVPSRFSGSGSGTDFTLTISSLQPEDFATYFCQQADSFPRTFGQGTKLEIK
# B2: V33 (antibody, V domains shown)
# VH: B1 VH with M32Y, Y104G
# VL: B1 VL
# B3: V23 (antibody, V domains shown)
# VH: B1 VH with M32Y
# VL: B1 VL with R96L
# B4: V71 (antibody, V domains shown)
# VH: B1 VH with M32Y
# VL: B1 VL with F94E
# B5: V11 (antibody, V domains shown)
# VH: B1 VH with M32Y
# VL: B1 VL with D92A
# B6: V56 (antibody, V domains shown)
# VH: B1 VH with M32Y, S61Q
# VL: B1 VL
# B7: V30 (antibody, V domains shown)
# VH: B1 VH with Y27S, M32Y
# VL: B1 VL
# B8: V59 (antibody, V domains shown)
# VH: B1 VH with M32Y
# VL: B1 VL with Q89M
# B9: V7 (antibody, V domains shown)
# VH: B1 VH with M32E
# VL: B1 VL
# B10: V68 (antibody, V domains shown)
# VH: B1 VH with M32Y, Y103R
# VL: B1 VL
# B11: V42 (antibody, V domains shown)
# VH: B1 VH with M32A
# VL: B1 VL
# B12: V57 (antibody, V domains shown)
# VH: B1 VH with M32Y
# VL: B1 VL with R24A
# B13: V20 (antibody, V domains shown)
# VH: B1 VH with M32Y, I50R
# VL: B1 VL
# B14: V54 (antibody, V domains shown)
# VH: B1 VH with M32Q
# VL: B1 VL
# B15: V66 (antibody, V domains shown)
# VH: B1 VH with Y27T, M32Y
# VL: B1 VL
# B16: V44 (antibody, V domains shown)
# VH: B1 VH with M32Y, G54S
# VL: B1 VL
# B17: V55 (antibody, V domains shown)
# VH: B1 VH with M32Y, R59I, F64H
# VL: B1 VL
# B18: V58 (antibody, V domains shown)
# VH: B1 VH with M32Y
# VL: B1 VL with A50K
# B19: V34 (antibody, V domains shown)
# VH: B1 VH with M32Y
# VL: B1 VL with N56D
# B20: V43 (antibody, V domains shown)
# VH: B1 VH with M32Y, D57G
# VL: B1 VL
# B21: V19 (antibody, V domains shown)
# VH: B1 VH with M32S
# VL: B1 VL
# B22: V22 (antibody, V domains shown)
# VH: B1 VH with M32Y
# VL: B1 VL with A50R
# B23: V69 (antibody, V domains shown)
# VH: B1 VH with M32Y
# VL: B1 VL with W32Y
# B24: V9 (antibody, V domains shown)
# VH: B1 VH with M32Y, T101G
# VL: B1 VL
# B25: V78 (antibody, V domains shown)
# VH: B1 VH with S28R, M32Y
# VL: B1 VL
# B26: V18 (antibody, V domains shown)
# VH: B1 VH with M32Y, W33H
# VL: B1 VL
# B27: V45 (antibody, V domains shown)
# VH: B1 VH with M32Y
# VL: B1 VL with W32F
# B28: V32 (antibody, V domains shown)
# VH: B1 VH with M32Y, P62N
# VL: B1 VL
# B29: V8 (antibody, V domains shown)
# VH: B1 VH with M32Y, R59K
# VL: B1 VL
# B30: V70 (antibody, V domains shown)
# VH: B1 VH with M32Y
# VL: B1 VL with S52G
# B31: V21 (antibody, V domains shown)
# VH: B1 VH with M32Y, Y109F
# VL: B1 VL
# B32: V10 (antibody, V domains shown)
# VH: B1 VH with M32Y
# VL: B1 VL with A50S
# B33: V46 (antibody, V domains shown)
# VH: B1 VH with M32Y
# VL: B1 VL with S53T
# B34: V67 (antibody, V domains shown)
# VH: B1 VH with M32Y, I50M
# VL: B1 VL
# B35: V35 (antibody, V domains shown)
# VH: B1 VH with M32Y
# VL: B1 VL with D92Y
# B36: V47 (antibody, V domains shown)
# VH: B1 VH with M32Y
# VL: B1 VL with R96M
# Biological target: T1, human TREM2
# Assay: 2nd screen 100 nM
row,Binder,Binding Signal (fold over 6E7 Parental antibody) [fold]
1,B1,0.56
2,B2,0.34
3,B3,0.4
4,B4,0.48
5,B5,0.42
6,B6,0.59
7,B7,0.72
8,B8,0.6
9,B9,0.32
10,B10,0.43
11,B11,0.41
12,B12,0.85
13,B13,0.52
14,B14,0.54
15,B15,0.74
16,B16,0.52
17,B17,0.66
18,B18,0.68

row,Binder,Binding Signal (fold over 6E7 Parental antibody) [fold]
1,B19,1.02
2,B20,0.33
3,B21,0.48
4,B22,0.71
5,B23,0.4
6,B24,0.54
7,B25,1.11
8,B26,0.42
9,B27,0.53
10,B28,0.89
11,B29,0.77
12,B30,0.84
13,B31,0.68
14,B32,0.7
15,B33,0.96
16,B34,0.84
17,B35,0.29
18,B36,0.47

# Biological target: T1, human TREM2
# Assay: 1st screen (110 nM or 10 nM)
row,Binder,Binding Signal (fold over 6E7 Parental antibody) [fold]
1,B1,0.2
2,B2,0.23
3,B3,0.4
4,B4,0.37
5,B5,0.79
6,B6,0.23
7,B7,0.79
8,B8,0.19
9,B9,0.11
10,B10,0.44
11,B11,0.45
12,B12,0.84
13,B13,0.18
14,B14,0.55
15,B15,0.25
16,B16,0.65
17,B17,0.24
18,B18,0.28

row,Binder,Binding Signal (fold over 6E7 Parental antibody) [fold]
1,B19,0.34
2,B20,0.2
3,B21,0.59
4,B22,0.3
5,B23,0.41
6,B24,0.67
7,B25,0.86
8,B26,0.17
9,B27,0.43
10,B28,0.82
11,B29,0.28
12,B30,0.79
13,B31,0.76
14,B32,0.76
15,B33,0.83
16,B34,0.8
17,B35,0.21
18,B36,0.42
